{"source": "ChEMBL document CHEMBL2074311", "about": "“ATP-dependent para-aminohippurate transport by apical multidrug resistance protein MRP2” (Kidney Int, 2000)", "proteins": {"B1": {"name": "Multidrug resistance-associated protein 1 (Homo sapiens) (protein)", "chain": "MALRGFCSADGSDPLWDWNVTWNTSNPDFTKCFQNTVLVWVPCFYLWACFPFYFLYLSRHDRGYIQMTPLNKTKTALGFLLWIVCWADLFYSFWERSRGIFLAPVFLVSPTLLGITMLLATFLIQLERRKGVQSSGIMLTFWLVALVCALAILRSKIMTALKEDAQVDLFRDITFYVYFSLLLIQLVLSCFSDRSPLFSETIHDPNPCPESSASFLSRITFWWITGLIVRGYRQPLEGSDLWSLNKEDTSEQVVPVLVKNWKKECAKTRKQPVKVVYSSKDPAQPKESSKVDANEEVEALIVKSPQKEWNPSLFKVLYKTFGPYFLMSFFFKAIHDLMMFSGPQILKLLIKFVNDTKAPDWQGYFYTVLLFVTACLQTLVLHQYFHICFVSGMRIKTAVIGAVYRKALVITNSARKSSTVGEIVNLMSVDAQRFMDLATYINMIWSAPLQVILALYLLWLNLGPSVLAGVAVMVLMVPVNAVMAMKTKTYQVAHMKSKDNRIKLMNEILNGIKVLKLYAWELAFKDKVLAIRQEELKVLKKSAYLSAVGTFTWVCTPFLVALCTFAVYVTIDENNILDAQTAFVSLALFNILRFPLNILPMVISSIVQASVSLKRLRIFLSHEELEPDSIERRPVKDGGGTNSITVRNATFTWARSDPPTLNGITFSIPEGALVAVVGQVGCGKSSLLSALLAEMDKVEGHVAIKGSVAYVPQQAWIQNDSLRENILFGCQLEEPYYRSVIQACALLPDLEILPSGDRTEIGEKGVNLSGGQKQRVSLARAVYSNADIYLFDDPLSAVDAHVGKHIFENVIGPKGMLKNKTRILVTHSMSYLPQVDVIIVMSGGKISEMGSYQELLARDGAFAEFLRTYASTEQEQDAEENGVTGVSGPGKEAKQMENGMLVTDSAGKQLQRQLSSSSSYSGDISRHHNSTAELQKAEAKKEETWKLMEADKAQTGQVKLSVYWDYMKAIGLFISFLSIFLFMCNHVSALASNYWLSLWTDDPIVNGTQEHTKVRLSVYGALGISQGIAVFGYSMAVSIGGILASRCLHVDLLHSILRSPMSFFERTPSGNLVNRFSKELDTVDSMIPEVIKMFMGSLFNVIGACIVILLATPIAAIIIPPLGLIYFFVQRFYVASSRQLKRLESVSRSPVYSHFNETLLGVSVIRAFEEQERFIHQSDLKVDENQKAYYPSIVANRWLAVRLECVGNCIVLFAALFAVISRHSLSAGLVGLSVSYSLQVTTYLNWLVRMSSEMETNIVAVERLKEYSETEKEAPWQIQETAPPSSWPQVGRVEFRNYCLRYREDLDFVLRHINVTINGGEKVGIVGRTGAGKSSLTLGLFRINESAEGEIIIDGINIAKIGLHDLRFKITIIPQDPVLFSGSLRMNLDPFSQYSDEEVWTSLELAHLKDFVSALPDKLDHECAEGGENLSVGQRQLVCLARALLRKTKILVLDEATAAVDLETDDLIQSTIRTQFEDCTVLTIAHRLNTIMDYTRVIVLDKGEIQEYGAPSDLLQQRGLFYSMAKDAGLV"}, "B2": {"name": "ATP-binding cassette sub-family C member 2 (Homo sapiens) (protein)", "chain": "MLEKFCNSTFWNSSFLDSPEADLPLCFEQTVLVWIPLGYLWLLAPWQLLHVYKSRTKRSSTTKLYLAKQVFVGFLLILAAIELALVLTEDSGQATVPAVRYTNPSLYLGTWLLVLLIQYSRQWCVQKNSWFLSLFWILSILCGTFQFQTLIRTLLQGDNSNLAYSCLFFISYGFQILILIFSAFSENNESSNNPSSIASFLSSITYSWYDSIILKGYKRPLTLEDVWEVDEEMKTKTLVSKFETHMKRELQKARRALQRRQEKSSQQNSGARLPGLNKNQSQSQDALVLEDVEKKKKKSGTKKDVPKSWLMKALFKTFYMVLLKSFLLKLVNDIFTFVSPQLLKLLISFASDRDTYLWIGYLCAILLFTAALIQSFCLQCYFQLCFKLGVKVRTAIMASVYKKALTLSNLARKEYTVGETVNLMSVDAQKLMDVTNFMHMLWSSVLQIVLSIFFLWRELGPSVLAGVGVMVLVIPINAILSTKSKTIQVKNMKNKDKRLKIMNEILSGIKILKYFAWEPSFRDQVQNLRKKELKNLLAFSQLQCVVIFVFQLTPVLVSVVTFSVYVLVDSNNILDAQKAFTSITLFNILRFPLSMLPMMISSMLQASVSTERLEKYLGGDDLDTSAIRHDCNFDKAMQFSEASFTWEHDSEATVRDVNLDIMAGQLVAVIGPVGSGKSSLISAMLGEMENVHGHITIKGTTAYVPQQSWIQNGTIKDNILFGTEFNEKRYQQVLEACALLPDLEMLPGGDLAEIGEKGINLSGGQKQRISLARATYQNLDIYLLDDPLSAVDAHVGKHIFNKVLGPNGLLKGKTRLLVTHSMHFLPQVDEIVVLGNGTIVEKGSYSALLAKKGEFAKNLKTFLRHTGPEEEATVHDGSEEEDDDYGLISSVEEIPEDAASITMRRENSFRRTLSRSSRSNGRHLKSLRNSLKTRNVNSLKEDEELVKGQKLIKKEFIETGKVKFSIYLEYLQAIGLFSIFFIILAFVMNSVAFIGSNLWLSAWTSDSKIFNSTDYPASQRDMRVGVYGALGLAQGIFVFIAHFWSAFGFVHASNILHKQLLNNILRAPMRFFDTTPTGRIVNRFAGDISTVDDTLPQSLRSWITCFLGIISTLVMICMATPVFTIIVIPLGIIYVSVQMFYVSTSRQLRRLDSVTRSPIYSHFSETVSGLPVIRAFEHQQRFLKHNEVRIDTNQKCVFSWITSNRWLAIRLELVGNLTVFFSALMMVIYRDTLSGDTVGFVLSNALNITQTLNWLVRMTSEIETNIVAVERITEYTKVENEAPWVTDKRPPPDWPSKGKIQFNNYQVRYRPELDLVLRGITCDIGSMEKIGVVGRTGAGKSSLTNCLFRILEAAGGQIIIDGVDIASIGLHDLREKLTIIPQDPILFSGSLRMNLDPFNNYSDEEIWKALELAHLKSFVASLQLGLSHEVTEAGGNLSIGQRQLLCLGRALLRKSKILVLDEATAAVDLETDNLIQTTIQNEFAHCTVITIAHRLHTIMDSDKVMVLDNGKIIECGSPEELLQIPGPFYFMAKEAGIENVNSTKF"}}, "key": {"[1]": {"substrate": "Nc1ccc(C(=O)NCC(=O)O)cc1", "assay": "TP_TRANSPORTER: uptake in membrane vesicle from MRP1-expressing HeLa cells", "assay_type": "functional, cell membranes"}, "[2]": {"substrate": "Nc1ccc(C(=O)NCC(=O)O)cc1", "assay": "TP_TRANSPORTER: uptake in membrane vesicles from MRP2-expressing HEK cells", "assay_type": "functional, cell membranes, HEK293, Membrane vesicle"}}, "data": [{"protein": "B1", "values": [{"measurement": "Km", "setting": "[1]", "result": 372, "unit": "µM"}]}, {"protein": "B2", "values": [{"measurement": "Km", "setting": "[2]", "result": 880, "unit": "µM"}]}]}
